Values quoted from earlier work as cited in article PMC2888655.
Where two headings read alike, the source gives them in different places.

Tests used:
IGF1 (Homo sapiens) [1] = biological target: IGF1 (Homo sapiens) (UniProt P05019); assay: SPR
IGF2 (Homo sapiens) [2] = biological target: IGF2 (Homo sapiens) (UniProt P01344); assay: SPR
IGF1 (Homo sapiens) [3] = biological target: IGF1 (Homo sapiens) (UniProt P05019)
IGF2 (Homo sapiens) [4] = biological target: IGF2 (Homo sapiens) (UniProt P01344)

Chain of IGF1 (Homo sapiens) (P05019 49-118): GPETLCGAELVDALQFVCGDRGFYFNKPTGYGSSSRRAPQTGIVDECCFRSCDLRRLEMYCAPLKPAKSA
Chain of IGF1R (from UniProt P08069) (P08069 31-736): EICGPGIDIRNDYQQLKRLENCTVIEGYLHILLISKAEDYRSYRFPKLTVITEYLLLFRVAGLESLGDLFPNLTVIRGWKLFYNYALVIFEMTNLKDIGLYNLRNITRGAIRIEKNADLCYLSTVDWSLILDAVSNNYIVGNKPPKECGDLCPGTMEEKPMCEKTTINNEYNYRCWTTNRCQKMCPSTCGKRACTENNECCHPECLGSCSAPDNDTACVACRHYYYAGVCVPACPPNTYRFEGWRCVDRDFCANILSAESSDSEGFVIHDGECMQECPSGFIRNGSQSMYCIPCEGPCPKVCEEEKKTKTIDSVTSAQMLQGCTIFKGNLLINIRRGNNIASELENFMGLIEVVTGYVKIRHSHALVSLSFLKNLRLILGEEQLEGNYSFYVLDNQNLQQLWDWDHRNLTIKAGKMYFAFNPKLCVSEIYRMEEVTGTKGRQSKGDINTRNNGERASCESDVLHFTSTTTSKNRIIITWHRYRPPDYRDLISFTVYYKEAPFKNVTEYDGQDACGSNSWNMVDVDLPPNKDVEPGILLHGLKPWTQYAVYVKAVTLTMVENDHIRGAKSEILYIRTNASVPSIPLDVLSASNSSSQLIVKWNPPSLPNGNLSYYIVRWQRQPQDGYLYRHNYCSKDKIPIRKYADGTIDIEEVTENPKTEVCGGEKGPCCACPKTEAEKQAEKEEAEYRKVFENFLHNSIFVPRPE
Chain of IGF1R (from UniProt P08069) (P08069 741-935): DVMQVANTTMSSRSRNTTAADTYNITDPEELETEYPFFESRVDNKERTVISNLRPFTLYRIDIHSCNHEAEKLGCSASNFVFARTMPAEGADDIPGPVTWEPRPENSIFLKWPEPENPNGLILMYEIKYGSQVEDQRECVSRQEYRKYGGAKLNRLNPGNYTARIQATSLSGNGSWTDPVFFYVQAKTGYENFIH
Chain of IGF2 (Homo sapiens) (P01344 25-91): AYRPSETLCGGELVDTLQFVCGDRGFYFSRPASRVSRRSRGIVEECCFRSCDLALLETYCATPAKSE
Chain of IGF1R (from UniProt Q05688) (Q05688 14-208): as the sequence (P08069 741-935) above, with D1E, V5I, A19V, A20L, G189T counted along it

Kd (IGF1 (Homo sapiens) [1]) [nM]	Kd (IGF2 (Homo sapiens) [2]) [nM]	Kd (IGF1 (Homo sapiens) [3]) [nM]	Kd (IGF2 (Homo sapiens) [4]) [nM]	Substance
4.45	17.8	–	–	IGF1R (from UniProt P08069)
–	–	1	1	IGF1R (from UniProt Q05688)
